Data on 1 compound can be found in patent US20250121076A1, “POLYPEPTIDE DRUG CONJUGATE HAVING NOVEL STRUCTURE AND APPLICATION THEREOF” (MEDSHINE DISCOVERY INC., priority 2021, published 2025).

A word on the pKd: it is −log10 of the Kd, conventionally taken in molar units. Low values mean a large Kd, high ones a small Kd. What is called pIC50 is the IC50 on a negative log10 scale, so that one unit is a factor of ten. Read a high pIC50 as a low IC50. Broadly, the AUC(0-t) is the area under the concentration-time curve up to a stated or last time point. Low readings indicate low exposure, high ones high exposure. By clearance is commonly meant a measure of how efficiently the substance is removed, as volume per time. As usually defined, the half-life is the time needed for the level to fall by half in the phase considered. Higher therefore signals slow decline.

pIC50, pKd: −log10 of the molar value. Counter-ions that a name gives are not always drawn. Starred links: 1 amine or outer side, 2 acyl side, 3 side chain; linkers in the order of their positions; H or OH if unused. Positions of bridges follow the written chain, without caps; N, C: chain ends. Non-standard residues stand in square brackets, D forms with d. Residues, ends and D or L forms follow the SMILES beside them. Chains are numbered I, II in the order given. *: point of attachment. TATA = O=C(CC[*:1])N1CN(C(=O)CC[*:2])CN(C(=O)CC[*:3])C1; Dolaproine = CO[C@@H]([C@@H]1CCCN1)[C@@H](C)C(=O)O; Dil = CC[C@H](C)[C@H](NC)[C@@H](CC(=O)O)OC; X2 = O=C(CCCC(=O)[*:2])NCCC(=O)[*:1]; PABC = O=C(OCc1ccc(N[*:1])cc1)[*:2]; X1 = C[C@@H](N*)[C@@H](O)c1ccccc1; Hyp = O=C(O)[C@@H]1C[C@@H](O)CN1; hArg = N=C(N)NCCCC[C@H](N)C(=O)O; Cit = NC(=O)NCCC[C@H](N)C(=O)O; Pen = CC(C)(S)[C@H](N)C(=O)O; NMeV = CN[C@H](C(=O)O)C(C)C; Sar = CNCC(=O)O

In one data set the target is T1, Human EphA2 (Homo sapiens, UniProt P29317).
T1 construct: purchased Sino Biological 13926-H08HD
As to the kind of experiment: Binding capacity test to EphA2 protein (SPR, Biacore 8K). As for the experimental part:
To detect the affinity of the compound to be tested to the target protein EphA2 using the SPR method.
• Biacore 8K (GE Healthcare). • 96-well Plate (Cat #650101, greiner bio-one) • CM5 chip (Cat #BR-1005-30, GE Healthcare) • Amine Coupling Kit (Cat #BR-1000-50, GE Healthcare) EDC NHS 1 M ethanolamine. • 10 mM sodium acetate pH 4.5 (Cat #BR-1003-50, GE Healthcare) • DMSO (Cat #D4540, Sigma) • P20 (Cat #BR-1000-54, GE Healthcare). • PBS (Cat #BR-1006-72, GE Healthcare). • EphA2 (Cat #13926-H08HD, Sino Biological)
In this experiment, the amino coupling method was used. The target protein EphA2 was directly immobilized on the CM5 chip using Biacore 8K. The compound to be tested as an analyte was then diluted to a required concentration gradient with a buffer (10 mM PBS, pH 7.4, 137 mM NaCl, 2.7 mM KCl, 5% DMSO, and 0.05% P20) for multi-cycle kinetic detection, in which each cycle is formed by 180 seconds of sample injection and 180 seconds of dissociation, and then the next cycle was performed, to obtain kinetic analysis data on the affinity of the target protein EphA2 to the compound to be tested. The final data were subjected to Kinetics fitting analysis based on a 1:1 model using Biacore Insight Evaluation Software (V 2.0.15.12933).
1) Preparation of the buffer: 10 mM PBS, pH 7.4, 137 mM NaCl, 2.7 mM KCl, 5% DMSO, and 0.05% P20.
2) Activation of the CM5 chip: The CM5 chip was activated with 400 mM EDC and 100 mM NHS at a flow rate of 10 μL/min for 420 seconds.
3) Coupling of the target protein: The target protein was diluted to 10 μg/mL with 10 mM sodium acetate (pH 4.5) and coupled at a flow rate of 10 μL/min for 284 s. The 1 #, 2 #, and 3 #channels on the chip were used in the experiment, and the coupling results were 1639.9RU, 1747.8RU, and 1702.2RU, respectively.
4) Blocking of the CM5 chip: The CM5 chip was blocked with 1 M ethanolamine at a flow rate of 10 μL/min for 420 seconds.
5) Analyte concentration: The compound to be tested was diluted with the buffer. The compound to be tested was diluted from 100 nM to 0.78 nM in a 2-fold gradient.
6) Sample injection analysis: Each concentration of the working solution of the compound to be tested corresponded to one cycle, with a flow rate of 30 μL/min for binding for 180 seconds and dissociating for 180 seconds. The last cycle was a 5% DMSO solvent correction cycle. 7) All results were subjected to kinetics fitting analysis based on a 1:1 model.
The experimental data of five effective concentrations of the compounds of the present invention were selected for Kinetics fitting analysis based on a 1:1 model using Biacore Insight Evaluation Software (V 2.0.15.12933).
On the technique in general: In SPR one partner is held on a chip, and binding of the other changes the refractive index at the surface.

The subject of another data set is NCI-H1975. As to the kind of experiment: In vitro anti-proliferative activity, CellTiter-Glo. Format: cell-based, Human. The settings on record: NCI-H1975, 72 h. As to the method: (§1) To investigate the effect of the compounds of the present invention on inhibiting cell proliferation by detecting the effect of the compounds on cell activity in vitro in tumor cell lines NCI-H1975 and SK-OV-3.
(§2) The tumor cell lines were cultured in a 37° C., no CO2 incubator and a 37° C., 5% CO2 incubator according to the culture conditions shown in Table 15, respectively. The cells were periodically passaged, and cells in a logarithmic growth phase were taken for plating.
(§3) Cells in a logarithmic growth phase were harvested and centrifuged at 1000 rpm for 3 min at room temperature. The supernatant was discarded, and the cells were resuspended in 5 mL of a culture medium. Then, 20 ul of the cell suspension was pipetted and mixed with trypan blue at 1:1 for staining for 3 min to detect cell viability and to count viable cells. The cell density was adjusted to 4000 NCI-H1975/well or 5000 SK-OV-3/well. Then, 90 μL of the cell suspension was added to each culture plate well, and a cell-free culture medium was added to blank control wells. […]
(§4) The detection was performed according to the instructions of the Promega CellTiter-Glo Luminescent Cell Viability Assay kit (Promega-G7573). The luminescence signal was detected on the En Vision® Multi-mode Plate Reader (EnVision 2104-10). […]
In general terms: Cellular ATP, detected with luciferase, serves as a proxy for viable cell number.

For the next data set, the system named is SK-OV-3. The data set is described as above. Format: cell-based, Human. The conditions noted are these: SK-OV-3, 72 h. As for the experimental part: as §1, §2, §3, §4
A short description of data set [1]: In vivo pharmacokinetic analysis in mice. Also noted: species or system CD-1 mice. The settings on record: mouse, in vivo, CD-1 mice, single IV 2 mg/kg, plasma. As for the experimental part:
To test the pharmacokinetics of the compounds of the present invention in CD-1 mice
The pharmacokinetic characteristics of the compound after intravenous injection and oral administration were tested in CD-1 mice according to a standard protocol. The compound of the present invention was formulated into a clear solution using 50 mM acetate buffer (pH=5) in 10% sucrose as a vehicle. Two mice were given a single intravenous injection of 2 mg/kg of the compound to be tested. Whole blood was collected at time points of 0.083, 0.25, 0.5, 1, 2, 4, 8, and 24 hours after administration to get plasma. The concentration of the compound to be tested and the concentration of its potential metabolite MMAE were analyzed by the LC-MS/MS method, and the pharmacokinetic parameters, such as maximal concentration (Cmax), clearance (Cl), half-life (T1/2), […] (Vdss), and area under the concentration-time curve (AUC0-last), were calculated by Phoenix WinNonlin software.

T1 sequence (P29317 24-534 limits assumed): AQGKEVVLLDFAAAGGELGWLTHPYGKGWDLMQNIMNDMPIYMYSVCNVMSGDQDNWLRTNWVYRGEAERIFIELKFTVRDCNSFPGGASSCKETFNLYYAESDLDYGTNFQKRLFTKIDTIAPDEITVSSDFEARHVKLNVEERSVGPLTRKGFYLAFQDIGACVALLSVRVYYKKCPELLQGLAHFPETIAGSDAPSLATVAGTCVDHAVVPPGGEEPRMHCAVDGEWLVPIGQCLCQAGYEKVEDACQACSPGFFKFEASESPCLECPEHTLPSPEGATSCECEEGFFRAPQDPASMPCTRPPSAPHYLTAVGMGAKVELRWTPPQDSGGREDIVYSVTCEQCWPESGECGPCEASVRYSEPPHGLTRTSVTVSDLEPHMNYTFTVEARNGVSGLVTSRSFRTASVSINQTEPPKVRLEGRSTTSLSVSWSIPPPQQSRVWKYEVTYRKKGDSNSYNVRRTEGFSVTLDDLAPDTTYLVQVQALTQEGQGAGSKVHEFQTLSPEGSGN

The compound `CC[C@H](C)[C@@H]([C@@H](CC(=O)N1CCC[C@H]1[C@H](OC)[C@@H](C)C(=O)N[C@H](C)[C@@H](O)c1ccccc1)OC)N(C)C(=O)[C@@H](NC(=O)[C@H](C(C)C)N(C)C(=O)OCc1ccc(NC(=O)[C@H](CCCNC(N)=O)NC(=O)[C@@H](NC(=O)CCCC(=O)NCCC(=O)N(C)CC(=O)N(C)CC(=O)N(C)CC(=O)N(C)CC(=O)N(C)CC(=O)N(C)CC(=O)N(C)CC(=O)N(C)CC(=O)N(C)CC(=O)N(C)CC(=O)N[C@H]2CCCCNC(=O)C[C@@H](C(=O)N[C@H]3CSCCC(=O)N4CN5CN(C4)C(=O)CCSC(C)(C)[C@@H](C(N)=O)NC(=O)[C@H](CCCCNC(=N)N)NC(=O)[C@H](Cc4c[nH]c6ccccc46)NC(=O)[C@@H](CC(=O)O)NC(=O)[C@@H]4CCCN4C(=O)[C@H](Cc4c[nH]cn4)NC(=O)[C@H](CC(C)C)NC(=O)[C@H](CSCCC5=O)NC(=O)[C@H](CC(C)C)NC(=O)[C@@H]4CCCN4C(=O)[C@H](CC(N)=O)NC(=O)[C@H](C(C)C)NC(=O)[C@H](CC(C)C)NC(=O)[C@@H]4C[C@@H](O)CN4C3=O)NC(=O)[C@H](CCCCNC(=N)N)NC2=O)C(C)C)cc1)C(C)C` [Acetate salt of PDC_8] (I: [Sar][Sar][Sar][Sar][Sar][Sar][Sar][Sar][Sar][Sar]K[hArg]DC[Hyp]LVNPLCLHP[dD]W[hArg][Pen]-NH2 / II: V[Cit][PABC][NMeV]V[Dil][Dolaproine]-X1; lactam I:11-I:13; linker I:14-I:21-I:28 via TATA; linker I:N-II:N via X2) gave a pKd at Human EphA2 of 8.46. For the same compound, the pIC50 in the data set with NCI-H1975 is 7.10. Further, the pIC50 in the data set on SK-OV-3 is 6.23. In addition, in data set [1], the AUC(0-t) turned out to be 0.56 µM·h, the C0 was found to be 2640 nM, the clearance amounted to 13 mL/min/kg and the half-life is 12 min. Further, the Vd in data set [1] (read-out: Vdss) worked out at 0.19 L/kg.
